Results published in patent US20180334496A1 (KODIAK SCIENCES, published 2018).

How the values were obtained:
[1] = biological target: T1, recombinant cynomolgus CFD, His-tagged (cynomolgus); assay: SPR MX96
T1 construct: also called rcyCFD-His; recombinant Cyno-CFD

[2] = biological target: T2, human Complement Factor D (CFD), purified from human serum (human, UniProt P00746 26-253); assay: SPR MX96, mAbs amine-coupled, CFD injected
T2 construct: serum purified (CompTech A136); also called serum purified CFD; hCFD-Comptech

[3] = biological target: T3, serum purified human Complement Factor D (human, UniProt P00746 26-253); assay: SPR Biacore, antibody on protein A chip, single cycle kinetics, 25 C;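 also: antibodies captured to roughly 70 RU on the protein A surface in HBS-EP+ running buffer, with kinetic constants derived by BIAevaluation fitting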
T3 construct: Serum purified protein flowed over the captured antibodies; also called CFD; human CFD
Procedure: (§1) Antibodies were diluted to 0.5 ug/ml in HBS-EP+ buffer and captured on a protein A chip for 25 seconds to reach approximately 70 resonance units. […] Binding kinetic information was obtained by the BIAevaluation software (GE).

[4] = biological target: T3, serum purified human Complement Factor D; assay: SPR Biacore, antibody on protein A chip, single cycle kinetics, 37 C;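 also: antibodies captured on the protein A surface to roughly 70 RU in HBS-EP+ buffer, with rate and affinity constants fitted using BIAevaluation software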
Procedure: as §1

T2 sequence (P00746 26-253): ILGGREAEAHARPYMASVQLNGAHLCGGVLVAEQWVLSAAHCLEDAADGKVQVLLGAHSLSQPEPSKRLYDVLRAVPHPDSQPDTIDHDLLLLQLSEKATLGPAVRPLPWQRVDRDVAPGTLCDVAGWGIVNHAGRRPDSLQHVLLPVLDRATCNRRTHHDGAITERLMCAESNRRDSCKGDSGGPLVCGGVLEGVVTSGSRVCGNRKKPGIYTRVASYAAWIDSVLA
T3 sequence (P00746 26-253): as above

Kd [1] [nM] | Kd [3] [nM] | koff [3] [s⁻¹] | kon [3] [M⁻¹ s⁻¹] | Kd [4] [nM] | koff [4] [s⁻¹] | kon [4] [M⁻¹ s⁻¹] | Binder | further results
13 | – | – | – | – | – | – | KCD216 (antibody, V domains shown) VH: QVHLQQSGPELVKPGASVKISCKASGYTFIDYYINWVKQRPGQGLEWIGWIFPGSDSTYYNEKFKGKATLTVDKSSSTAYMLLSSLTSEDSAVYFCARYGYYGSSFYAMDYWGQGTSVTVSS VL: DIQMTQSPASLSVSVGETVTITCRASENIYSNLAWYQQKQGKSPQLLVYAATNLADGVPSRFSGSGSGTQYSLKINSLQSEDFGSYYCQHFWGTPPTFGGGSKLEIK | –
150 | – | – | – | – | – | – | KCD006 (antibody, V domains shown) VH: EVQLQQSGAELVKPGASVKLSCTASGFKIKDTYMHWVKERPEQGLEWIGRIDPANGNTKYDPKFQGKATITADTSSNTAYLQLSSLTSEDTAVYYCANAMDYWGQGTSVTVSS VL: QIILTQSPAIMSASPGEKVTMTCSARSSVSNMYWYQQKPGSSPRLLIYDTSNLASGVPVRFSGSGSGTSYSLTISRMEAEDAATYYCQQWSSYPWTFGGGTKLEIK | –
9.1 | – | – | – | – | – | – | KCD112 (antibody, V domains shown) VH: EVQLQQSGPELVKPGASVKISCKASGYSFTAYYMNWVKHSPEKSLEWIGDINPSTGGTTYNQKFKARATLTVDKSSSTAYMQLKSLTSEDSAVYYCATTYYSGNSYVGFAYWGQGTLVTVSA VL: DIVMTQSHKFMSTSVGDRVSITCKASQDVSTAVAWYQQKPGQSPKLLIFWTSTRHTGVPDRFTGSGSGTDYTLTISSVQAEDLALYYCQQHYTTPWTFGGGTKLEIK | –
18 | – | – | – | – | – | – | KCD115 (antibody, V domains shown) VH: EVQLQQSGPELVKPGASVKISCKASGYSFTGYYMNWVKQSPEKSLEWIGDINPSTGGTTYNQKFKAKATLTVDKSSSTAYMQLKSLTSEDSAVYYCATPYYYGSSYVGFAYWGQGTLVTVSA VL: DIVMTQSHKFMSTSVGDRVSITCKASQDVSTAVDWYQQKPGQSPKLLIYWASTRHTGVPDRFTGSGSGTDYTLTISSVQAEDLALYYCQQHYSTPWTFGGGTKLEIK | –
7.2 | – | – | – | – | – | – | KCD111 (antibody, V domains shown) VH: EVQLQQSGPELVKPGASVKISCKASGYSFTDYYMHWVKQSHGNILDWIGYIDPYNGVSSYNQKFKGKATLSVDQSSSTAYMELRSLTSEDSAVYYCSSYYGSSPYWYFDVWGTGTRVTVSS VL: QIVLSQSPAILSASPGEKVTMTCRASSSVSYMHWYQQKPGSSPKPWIYATSNLASGVPTRFSGSGSGTSYSLTISKLEAEDAATYYCQQWSSNPYTFGGGTKLEIK | –
5.5 | – | – | – | – | – | – | KCD232 (antibody, V domains shown) VH: EVQLVESGGGLVQPKGSLKLSCAASGFSFNTYAMNWVRQAPGKGLEWVARIRSKSNNYATYYADSVKDRFTISRDDSESMVYLQMNNLKTEDTAMYYCVRHGYYWYFDVWGTGTTVTVSS VL: DVLMTQTPLSLPVSLGDQASISCRSSQSIVHSDGNTYLEWYLQKPGQSPKLLIYRVSNRFSGVPDRFSGSGSGTDFTLKISRMEAEDLGVYYCFQGSHVPYTFGGGTKLEIK | –
1.4 | – | – | – | – | – | – | KCD207 (antibody, V domains shown) VH: AVQLVESGGGLVQPKGSLKLSCAASGFSFNTYAMNWVRQAPGKGLEWVARIRSKSNNYATYYADSVKDRFTLSRDDSESMLYLQMNNLKTEDTAMYYCVRQGFYWYFDVWGTGTTVTVSS VL: DVLMTQTPLSLPVSLGDQASISCRSSQTIVHSNGNTYLEWYLQKSGQSPKLLIYNVSNRFSGVPDRFRGSGSGTDFTLKISRVEAEDLGVYYCFQGSHVPYTFGSGTKLEIK | –
1.6 | – | – | – | – | – | – | KCD229 (antibody, V domains shown) VH: EVQLVESGGGLVQPKGSLKLSCAASGFSFNTYAMNWVRQAPGKGLEWVARIRSKSNNYATYYADSVKDRFTIFRDDSESMLYLQMNNLKTEDTAMYYCVRHGYYWYFDVWGTGTTVTVSS VL: DVLMTQNPLSLPVSLGDQASISCRSSQSIVHSNGNTYLEWYLQKPGQSPNLLIYNVFNRFSGVPDRFSGSGSGTDFTLKISRVEAEDLGVYYCFQGSHVPYTFGSGTKLEIK | –

Further lines, the binder ahead of its results:

Binder | Kd [1] [nM] | Kd [3] [nM] | koff [3] [s⁻¹] | kon [3] [M⁻¹ s⁻¹] | Kd [4] [nM] | koff [4] [s⁻¹] | kon [4] [M⁻¹ s⁻¹] | further results
KCD001 (antibody, V domains shown) VH: EVQLQQSGPELVKPGASVKISCKASDNSFTGYYMHWVKQSHGNILDWIGYIDPYNGVSSYNQKFKGKATLTVDKSSSTAYMEIRSLTSEDSAVYYCASYYGSSPYWYFDVWGTGTTVTVSS VL: QIVLSQSPAILSASPGEKVTMTCRASSSVSYMHWYQQKPGSSPKPWIYATSNLASGVPARFSGSGSGTSHFLTISRLEAEDAATYFCQQWSSNPYTFGGGTKLEIK | – | – | – | – | – | – | – | Kd [2]: 0.225 nM
KCD005 (antibody, V domains shown) VH: EVQLQQSGPELVKPGASVKISCKASGYTFTDHYMNWVKQSHGKSLEWIGDINPNNGGTSCNQKFKGKATLTVDKSSSTAYMELRSLTSGDSAVYYCTREGASFAFWGQGTLVTVSA VL: DVLMTQTPLSLPVSLGDQASISCRSSQSIVHSNGDTYLEWYLQKPGQSPKLLIYKVSNRFSGVPDRFSGSGSGTDFTLKISRVEAEDLGVYYCFQGSHVPVTFGAGTKLELK | – | – | – | – | – | – | – | Kd [2]: 1.39 nM
KCD129 (antibody, V domains shown) VH: EVQLVESGGGLVQPKGSLKLSCAASGFSFNTYAMNWVRQAPGKGLEWVARIRSKSNNYATYYADSVKDRFTISRDDSESMVYLQMNNLKTEDTAMYYCVRHGYYWYFDVWGTGTTVTVSS VL: DVLMTQTPLSLPVSLGDQASISCRSSQSIVHSDGNTYLEWYLQKPGQSPKLLIYRVSNRFSGVPDRFSGSGSGTDFTLKISRMEAEDLGVYYCFQGSHVPYTFGGGTKLEIK | 6 | – | – | – | – | – | – | –
KCD124 (antibody, V domains shown) VH: EVQLQQSGPELVKPGASVKISCKASGYTFTDHYMNWVKQSHGKSLEWIGDINPNNGGTSYNQKFKGKATLTVDKSSSTAYMELRSLTSGDSAVYYCTREGASFAFWGQGTLVTVSA VL: DVLMTQTPLSLPVSLGDQASISCRSSQSIVHSNGDTYLEWYLQKPGQSPKLLIYKVSNRFSGVPDRFSGSGSGTDFTLKISRVEAEDLGVYYCFQGSHVPLTFGAGTKLELK | – | – | – | – | – | – | – | Kd [2]: 4.32 nM
KCD010 (antibody, V domains shown) VH: EVLLQQSGPELVKPGASVKIPCKASGYTFTDYDMDWVKQSHGKSLEWIGHINPNNGGTIYNQKFKGKATLTVDKSSSTAYMELRSLTSEDTAVYYCGTGDFAYWGHGTLVTVSA VL: QIVLTQSPAIMSVSPGEKVTLTCSASSSVSSSYLYWYQKKPGSSPKLWIYSTSNLASGVPARFSGSGSGTSYSLTISSMEAEDAASYFCHQWSSYPPTFGAGTKLELK | – | – | – | – | – | – | – | Kd [2]: 3.05 nM
54V59D / 32W50I101V (antibody, V domains shown, KCD119 TAF variant; full antibody captured on protein A) VH: EVQLVESGGGLVQPGGSLRLSCAASGYTFTDYYMNWVRQAPGKGLEWIGDINPVTGDTDYNADFKRRFTFSLDTSKSTAYLQMNSLRAEDTAVYYCTREGPSFAYWGQGTLVTVSS VL: DIQLTQSPSSLSASVGDRVTITCRSSQTIVHWNGDTYLEWYQQKPGKAPILLIYKVSNRFSGVPSRFSGSGSGTDFTLTISSLQPEDFATYYCFQGSHVPVTFGQGTKVEIK | – | 0.0158 | 0.000105 | 6.64e+06 | 0.0223 | 0.000305 | 1.37e+07 | –
54V / 101V (antibody, V domains shown, KCD119 TAF variant; full antibody captured on protein A) VH: EVQLVESGGGLVQPGGSLRLSCAASGYTFTDYYMNWVRQAPGKGLEWIGDINPVTGDTSYNADFKRRFTFSLDTSKSTAYLQMNSLRAEDTAVYYCTREGPSFAYWGQGTLVTVSS VL: DIQLTQSPSSLSASVGDRVTITCRSSQTIVHSNGDTYLEWYQQKPGKAPNLLIYKVSNRFSGVPSRFSGSGSGTDFTLTISSLQPEDFATYYCFQGSHVPVTFGQGTKVEIK | – | 0.0688 | 0.000491 | 7.14e+06 | 0.142 | 0.00158 | 1.11e+07 | –
31S54V59D / 54R101V (antibody, V domains shown, KCD119 TAF variant) VH: EVQLVESGGGLVQPGGSLRLSCAASGYTFTSYYMNWVRQAPGKGLEWIGDINPVTGDTDYNADFKRRFTFSLDTSKSTAYLQMNSLRAEDTAVYYCTREGPSFAYWGQGTLVTVSS VL: DIQLTQSPSSLSASVGDRVTITCRSSQTIVHSNGDTYLEWYQQKPGKAPNLLIRKVSNRFSGVPSRFSGSGSGTDFTLTISSLQPEDFATYYCFQGSHVPVTFGQGTKVEIKR | – | 0.00394 | 5.48e-05 | 1.39e+07 | 0.00725 | 0.000242 | 3.33e+07 | –
54V59D / 34D60W101V (antibody, V domains shown, KCD119 TAF variant; full antibody captured on protein A) VH: EVQLVESGGGLVQPGGSLRLSCAASGYTFTDYYMNWVRQAPGKGLEWIGDINPVTGDTDYNADFKRRFTFSLDTSKSTAYLQMNSLRAEDTAVYYCTREGPSFAYWGQGTLVTVSS VL: DIQLTQSPSSLSASVGDRVTITCRSSQTIVHSNDDTYLEWYQQKPGKAPNLLIYKVSNRWSGVPSRFSGSGSGTDFTLTISSLQPEDFATYYCFQGSHVPVTFGQGTKVEIK | – | 0.0213 | 0.000187 | 8.8e+06 | 0.0531 | 0.00083 | 1.56e+07 | –
54V59D / 34D50V101V (antibody, V domains shown, KCD119 TAF variant; full antibody captured on protein A) VH: EVQLVESGGGLVQPGGSLRLSCAASGYTFTDYYMNWVRQAPGKGLEWIGDINPVTGDTDYNADFKRRFTFSLDTSKSTAYLQMNSLRAEDTAVYYCTREGPSFAYWGQGTLVTVSS VL: DIQLTQSPSSLSASVGDRVTITCRSSQTIVHSNDDTYLEWYQQKPGKAPVLLIYKVSNRFSGVPSRFSGSGSGTDFTLTISSLQPEDFATYYCFQGSHVPVTFGQGTKVEIK | – | 0.0257 | 0.000187 | 7.26e+06 | 0.0591 | 0.00079 | 1.34e+07 | –
54V59D / 54R101V (antibody, V domains shown, KCD119 TAF variant) VH: EVQLVESGGGLVQPGGSLRLSCAASGYTFTDYYMNWVRQAPGKGLEWIGDINPVTGDTDYNADFKRRFTFSLDTSKSTAYLQMNSLRAEDTAVYYCTREGPSFAYWGQGTLVTVSS VL: DIQLTQSPSSLSASVGDRVTITCRSSQTIVHSNGDTYLEWYQQKPGKAPNLLIRKVSNRFSGVPSRFSGSGSGTDFTLTISSLQPEDFATYYCFQGSHVPVTFGQGTKVEIKR | – | 0.0119 | 0.000141 | 1.19e+07 | 0.0154 | 0.00037 | 2.4e+07 | –
